This note sets out measurements from US20250026852A1 (Chugai, published 2025).

The target in assay [1] is T1, human CD3ed-Fc (human).
T1 construct: Biotinylated in culture by BirA; also called biotin-labeled protein containing human CD3 epsilon and human CD3 delta linked to a human antibody constant region; CD3 heterodimer fused with the antibody constant region
T1 chain 1: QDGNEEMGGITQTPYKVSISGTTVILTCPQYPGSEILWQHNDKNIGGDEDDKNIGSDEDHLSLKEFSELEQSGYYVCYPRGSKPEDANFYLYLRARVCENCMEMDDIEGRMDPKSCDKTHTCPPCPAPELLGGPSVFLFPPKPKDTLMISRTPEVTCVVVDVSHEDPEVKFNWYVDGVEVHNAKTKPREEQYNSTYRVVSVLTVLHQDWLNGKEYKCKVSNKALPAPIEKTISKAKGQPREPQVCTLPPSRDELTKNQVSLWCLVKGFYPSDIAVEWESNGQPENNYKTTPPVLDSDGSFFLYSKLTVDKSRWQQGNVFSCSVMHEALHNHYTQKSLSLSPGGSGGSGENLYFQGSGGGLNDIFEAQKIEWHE
T1 chain 2: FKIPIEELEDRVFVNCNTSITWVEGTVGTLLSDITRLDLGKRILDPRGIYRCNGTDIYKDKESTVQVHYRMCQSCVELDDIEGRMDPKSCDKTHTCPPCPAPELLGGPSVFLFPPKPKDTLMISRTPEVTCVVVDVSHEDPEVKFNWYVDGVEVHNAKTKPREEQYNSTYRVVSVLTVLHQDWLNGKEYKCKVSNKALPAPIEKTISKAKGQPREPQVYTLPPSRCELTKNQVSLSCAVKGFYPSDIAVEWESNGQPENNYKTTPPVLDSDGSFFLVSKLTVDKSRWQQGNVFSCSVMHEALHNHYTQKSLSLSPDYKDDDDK
The assay is described as follows: phage display: ELISA / panning of the immunized-alpaca VHH library (Example 5-1 or 5-2). (In general: In an ELISA, binding on a coated surface is turned into a signal by an enzyme label.)

Assay [2] addresses T1, human CD3ed-Fc. The assay can be described thus: BLI (Octet RED), human CD3ed-Fc on the sensor, protease-treated molecule as analyte. On the procedure: The protease concentration was set to 25 nM, and Octet RED (Pall ForteBio Corp.) was used in the assay.
Next, the CD3 binding evaluation of VHH released by protease treatment was conducted in the same way as in Example 3.

The next assay concerns the target T2, 20A11-G1m/VK2-28-k0MT.
T2 construct: IgG antibody-like molecule; VHH 20A11 in place of VH
The assay can be described thus: BLI (Octet), in the same way as in Example 3. A general note: BLI is a label-free optical method that tracks binding on a fibre tip over time.

The next assay deals with T3, IL6R90-G1m/VK2-28-k0MT.
T3 construct: IgG antibody-like molecule; VHH IL6R90 in place of VH
T3 sequence (light, as listed by the source, chain 2 of 2, other chains not shown): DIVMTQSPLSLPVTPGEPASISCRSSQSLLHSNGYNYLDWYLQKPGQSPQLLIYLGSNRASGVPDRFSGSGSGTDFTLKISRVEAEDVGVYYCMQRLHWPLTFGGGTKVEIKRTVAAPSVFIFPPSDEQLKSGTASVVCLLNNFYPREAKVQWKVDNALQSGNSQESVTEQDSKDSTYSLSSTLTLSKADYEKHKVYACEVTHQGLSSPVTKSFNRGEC
The assay can be described thus: BLI (Octet HTX), molecule captured on Protein A biosensor, hsIL-6R as analyte, 30 C. On the procedure:
(§1) The hsIL-6R binding evaluation of each molecule was conducted using Octet HTX (Pall ForteBio Corp.). Specifically, each molecule was allowed to bind to Biosensor/Protein A (ProA) (Pall ForteBio Corp., 18-5013), and hsIL-6R was allowed to act thereon, followed by binding evaluation at 30° C.

For the next assay, the target named is T4, IL6R90-G1m/lamL (Homo sapiens (Human), UniProt P0DOY2 1-106).
T4 construct: IgG antibody-like molecule; VHH IL6R90 in place of VH
Described as above. On the procedure:
as §1

A further assay concerns the target T5, 20A11hu-G1m/VK2-28-k0MT (Homo sapiens (Human), UniProt P0DOX5 2-447 = IgG part).
T5 construct: IgG antibody-like molecule; VHH 20A11hu in place of VH
The assay is described as follows: BLI (Octet), in the same way as in Example 3, 30 C or 25 C. As for the experimental part: Next, the IL-6R binding evaluation of VHH released by protease treatment was conducted at 30° C. or 25° C. in the same way as in Example 3.

T2 sequence (heavy, as listed by the source, chain 1 of 2): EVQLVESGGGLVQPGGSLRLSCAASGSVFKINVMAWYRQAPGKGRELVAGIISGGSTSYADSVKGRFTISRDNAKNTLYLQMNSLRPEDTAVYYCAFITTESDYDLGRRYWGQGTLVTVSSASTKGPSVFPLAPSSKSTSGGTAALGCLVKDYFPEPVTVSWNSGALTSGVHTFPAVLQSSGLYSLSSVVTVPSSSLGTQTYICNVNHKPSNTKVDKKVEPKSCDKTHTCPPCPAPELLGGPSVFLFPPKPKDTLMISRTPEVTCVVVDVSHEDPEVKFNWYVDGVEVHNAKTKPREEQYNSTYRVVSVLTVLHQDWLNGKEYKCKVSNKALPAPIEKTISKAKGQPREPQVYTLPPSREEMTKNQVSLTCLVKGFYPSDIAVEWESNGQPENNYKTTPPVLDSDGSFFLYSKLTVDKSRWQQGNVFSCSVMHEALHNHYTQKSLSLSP
T2 sequence (light, as listed by the source, chain 2 of 2): as the sequence (light, as listed by the source, chain 2 of 2, other chains not shown) above
T5 sequence (P0DOX5 other isoform, or with tags, fused parts or gaps, chain 1 of 2): as the sequence (heavy, as listed by the source, chain 1 of 2) above, with Y37V, R45L, L47W counted along it
T5 sequence (light, as listed by the source, chain 2 of 2): as the sequence (light, as listed by the source, chain 2 of 2, other chains not shown) above

B1: bC3edL1R1N164H01 (VHH)
VHH: QVQLVESGGGLVQPGGSLRLSCAASGFTFDVYGMSWVRHSPGKGLEWVSTINWNGGSTYYAESMKGRFTISRDNAKNTVYLQMNSLKPEDTAVYYCAKFAPWDGDMEWGQGTQVTVSG
Consider B1, for which the binding result with human CD3ed-Fc [1] is “binds”.

B2: bC3edL1R1N164H01-G1mISHI01/VK1-39-k0MT after protease (MT-SP1) treatment (VHH)
VHH: B1 VHH
notes: also called released VHH; not shown: residues of the protease cleavage site left at the C terminus
For the molecule B2, the binding result with human CD3ed-Fc [2] was “binds”.

B3: bC3edL1R1N161H01 (VHH)
VHH: QVQLVESGGGLVQPGGSLRLSCAASGFPFDNYVMSWVRQAPGKGLEWISAISWNGGSTYYAESMKGRFTISRDNAKSTLYLQMNSLKSEDTAVYYCAKEPRVYYSGSPDYWGQGTQVTVSG
For B3, the binding result in the assay with human CD3ed-Fc [1] is “binds”.

B4: bC3edL1R1N161H01-G1mISHI01/VK1-39-k0MT after protease (MT-SP1) treatment (VHH)
VHH: B3 VHH
notes: as for B2
For B4, in the assay with human CD3ed-Fc [2], the binding result is given as “binds”.

B5: bC3edL1R1N160H01 (VHH)
VHH: QVQLVESGGGLVQPGGSLRLSCAASGFTFNHCWMYWVRQAPGKGLEWVSVINTDGGSAYYADSVKGRFTISRDNAKNTLYLQMNSLKSEDTAVYYCARDWAPLVDYYYGMDYWGKGTLVTVSG
On to B5, for which the binding result in the assay with human CD3ed-Fc [1] is listed as “binds”.

B6: bC3edL1R1N160H01-G1mISHI01/VK1-39-k0MT after protease (MT-SP1) treatment (VHH)
VHH: B5 VHH
notes: as for B2
Turning to B6, in the assay with human CD3ed-Fc [2], the binding result is “binds”.

B7: soluble human IL-6R (receptor)
chain: LAPRRCPAQEVARGVLTSLPGDSVTLTCPGVEPEDNATVHWVLRKPAAGSHPSRWAGMGRRLLLRSVQLHDSGNYSCYRAGRPAGTVHLLVDVPPEEPQLSCFRKSPLSNVVCEWGPRSTPSLTTKAVLLVRKFQNSPAEDFQEPCQYSQESQKFSCQLAVPEGDSSFYIVSMCVASSVGSKFSKTQTFQGCGILQPDPPANITVTAVARNPRWLSVTWQDPHSWNSSFYRLRFELRYRAERSKTFTTWMVKDLQHHCVIHDAWSGLRHVVQLRAQEEFGQGEWSEWSPEAMGTPWTESRSPPAENEVSTPMQALTTNKDDDNILFRDSANATSLPVQ
notes: also called hsIL-6R; recombinant human IL-6R
For the molecule B7, the binding result is given as “binds” with 20A11-G1m/VK2-28-k0MT, “no binding” with IL6R90-G1m/VK2-28-k0MT, “binds” with IL6R90-G1m/lamL and “no binding” with 20A11hu-G1m/VK2-28-k0MT.
